Values of other authors, collected in article PMC5512170.

Target: SNX27 PDZ (Homo sapiens) (UniProt Q96L92)
Test: fluorescence polarization

- Kd: 17 µM
Substance: ß2-AR tail C-tail (from UniProt P07550)
